In PMC2691818:

Assays:
h-mtTFA1-179 [1] = molecular target: T1, h-mtTFA1-179 (Homo sapiens, UniProt Q00059 43-221); test: EMSA
T1 sequence: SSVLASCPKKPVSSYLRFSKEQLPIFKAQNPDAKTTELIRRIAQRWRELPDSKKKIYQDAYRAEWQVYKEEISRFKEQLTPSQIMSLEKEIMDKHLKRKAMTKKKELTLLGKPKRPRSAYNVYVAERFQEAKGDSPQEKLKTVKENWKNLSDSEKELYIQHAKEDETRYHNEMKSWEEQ

[2] = molecular target: T2, h-mtTFA full-length (mature) (Homo sapiens, UniProt Q00059 43-246); test: EMSA
T2 sequence: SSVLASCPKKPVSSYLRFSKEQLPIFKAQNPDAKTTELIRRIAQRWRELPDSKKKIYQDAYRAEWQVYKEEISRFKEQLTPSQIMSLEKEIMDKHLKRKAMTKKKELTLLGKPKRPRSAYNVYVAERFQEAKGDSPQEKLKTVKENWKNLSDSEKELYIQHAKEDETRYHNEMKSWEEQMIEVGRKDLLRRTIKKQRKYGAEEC

h-mtTFA1-179 [3] = molecular target: T1, h-mtTFA1-179; test: competition
[4] = molecular target: T3, h-mtTFA box B (mtTFA110-179) (Homo sapiens, UniProt Q00059 152-221); test: EMSA
T3 sequence: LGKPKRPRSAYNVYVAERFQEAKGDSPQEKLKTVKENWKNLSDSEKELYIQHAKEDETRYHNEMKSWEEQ

B1: 30 bp LSP DNA, 32P-labeled (dsDNA)
DNA 1: GTGTTAGTTGGGGGGTGACTGTTAAAAGTG
DNA 2: CACTTTTAACAGTCACCCCCCAACTAACAC
Work on B1 yielded a Kd (h-mtTFA1-179 [1]) of 12 ± 1.7 nM and a Kd [2] of 5.4 ± 0.6 nM.

B2: 30 bp scrambled nonspecific DNA (NS DNA) (dsDNA)
DNA 1: ACTACTAACAGACCGCAACCTAAACACAAC
DNA 2: GTTGTGTTTAGGTTGCGGTCTGTTAGTAGT
B2: binds (h-mtTFA1-179 [3]).

B3: 30 bp LSP DNA, unlabeled (dsDNA)
DNA 1: GTGTTAGTTGGGGGGTGACTGTTAAAAGTG
DNA 2: CACTTTTAACAGTCACCCCCCAACTAACAC
B3: no binding [4].
